This series is described as follows: soluble on expression in E. coli; label from the status in PepcDB or PDB records.
Take “MKIAVDAMGGDNAPQAIVEGVMLAKQDFPDIEFQLYGKEAEIKKYITDEKNITIIHTDEKIASDDEPVKAIRRKKTASMVLAAQAVKNGEADAIFSAGNTGALLAAGLFIVGRIKNVERPGLMSTLPVMGEPDKGFDMLDLGANADNKPEHLVQYAVLGSFYAEKVRNVQNPRVGLLNNGTEETKGSELTKKAFELLAADETINFVGNVEARELLNGVADVVVTDGFTGNAVLKSIEGTAMNMMSLLKTAILSEGVKGKMGALLLKNALHGMKDEMDYSKHGGAVLFGLKAPVIKTHGATGPDAVRYTIRQIHTMLETQVVPQLVEYYEGKAE”: the “soluble on expression in E. coli” value is on record as “soluble”.

As for “MKIDKYSAILGNTVGFHNMSTLTDHRPVASLPFGGKYRLIDFPLSSLANAGVRSVFGIFQQDNISSVFDHIRSGREWGLSTLLSHYYLGIYNTRVESSTVGKEYYQQLLTYLKRSGSNQTVALNCDVLINIDLNQVFHLHSTTKEPITVVYKKLAKKDISEVNAILDVDETDHVLSHKLFDSKSTAETFNMSTDIFVVDTPWLIEHLEEEAKKEHPEKLRYVLRDLAVKEGAFAYEYTGYLANIHSVKSYYQANIDMLESQKFYSLFSPNQKIYTKVKNEEPTYYANTSKVSTSQFASGSIIEGQVANSVLSRNIHVHKDSLVKDSLLFPRVVIGEGAQVEYAILDKGVEVEHGVVIRGTAEHPVVVKKGAKVTEDIHS”, the “soluble on expression in E. coli” value is reported as “not soluble”.

Take “MKIEAISTTIVDVPTRRPLQMSFTTVHKQSYVIVQVKAGGLVGIGEGGSVGGPTWGSESAETIKVIIDNYLAPLLVGKDASNLSQARVLMDRAVTGNLSAKAAIDIALHDLKARALNLSIADLIGGTMRTSIPIAWTLASGDTARDIDSALEMIETRRHNRFKVKLGARTPAQDLEHIRSIVKAVGDRASVRVDVNQGWDEQTASIWIPRLEEAGVELVEQPVPRANFGALRRLTEQNGVAILADESLSSLSSAFELARDHAVDAFSLKLCNMGGIANTLKVAAVAEAAGISSYGGTMLDSTVGTAAALHVYATLPSLPYGCELIGPWVLGDRLTQQDLEIKDFEVHLPLGSGLGVDLDHDKVRHYTRAA”: the “soluble on expression in E. coli” value is recorded as “soluble”. For “MKIFSRLGHVLLICSSLIIAIPAHSADSSTTTKAGVKKTVKKQELSANSALVIDLKTNEIIYSNNPDAVKPIASVTKLMTAIVTLDAKLPMDAKLPITIKDAKEMKGVHSRVKIGSEISRKDMLLLTLMSSENRAAASLAHHYPGGYKAFIKAMNAKAKALGMKNTRFVEPTGLSAKNVSTARDLVVLLKASKKYPLLGKLSATDKKTVTFSKPRYTLDFRNTNRLVHNDNWKIDLTKTGFTNAAGHCLVMRTQMGRRQVAFVVLDTKGKLSPVGDANRLRTWIETGKVTPLSSEAKQYKKQRSQEQIAKISDYKS” the value was “not soluble”. Next, “MKIFVLSIRPEEKAQRTGGACFDILNVPVTRLEPIPVDYTDLIRSGVDCVAFTSSYGVRLFFKNAPVKNFRYFGIGKSTCEEVRKYGYDCEYPEKMDSEGLADMIISHCSGRKVALIRSANANEIVNEKIMGHVDFIDLRNYRAVNTNVDLTPYMAKEECMGIIVTSSMEAKIAMPAIKATGKPVYSIGSVTTKTLEEAGIHPAISGNSDFVDLVEKIKKYLCLV”: “not soluble”. Next, “MKIFVVGAHGQIGQLLVHRLLDRGDTVTGGYRDPIAQTPDPEKNFRAVELDLSWPVDRLADLYAGHDAIVFAAGSRGQDLLGVDLDGAVKTMKAAERADISRFIMLSALDAEDPDKWPDQLHDYYIVKYYADEWLIHNTDLDYVIVQPTALTNDPAQGSITLQPQRPSSIPRADVADVLVAALDSNRHRDTVKIASGNEAIVKALHVLEHHHHHH”: “not soluble”; “MKIGLIGAGVVGRAIATLAVRAGHQVMLSNSRGPHTLFSLRAAVGCAIGTVDEAAAFGDIGVVAVPLAAYRAVPAAALAGKVVIDTNNYYPERDGAIAELDDKRTTTSELLARHLPASRIVKAFNAITMTDLDRDGRPAGSPNRRALPVAGDDAKGKAIAIALLDAFGFDALDAGPLSQGWRFERGTPAYCVALTRDALEKTLAATTRLEHHHHHH”: “not soluble”. Take “MKIKILVDEYNTQKEQAKKVRKATSLYFRIHPSIMASKTLRVLFLGPKGTYSHQAALQQFQSTSDVEYLPAASIPQCFNQLENDTSIDYSVVPLENSTNGQVVFSYDLLRDRMIKKALSLPAPADTNRITPDIEVIAEQYVPITHCLISPIQLPNGIASLGNFEEVIIHSHPQVWGQVECYLRSMAEKFPQVTFIRLDCSSTSESVNQCIRSSTADCDNILHLAIASETAAQLHKAYIIEHSINDKLGNTTRFLVLKRRENAGDNEVEDTGLLRVNLLTFTTRQDDPGSLVDVLNILKIHSLNMCSINSRPFHLDEHDRNWRYLFFIEYYTEKNTPKNKEKFYEDISDKSKQWCLWGTFPRNERYYHK”: the “soluble on expression in E. coli” value is “not soluble”. For “MKILTIDTSTSTCSAALSIDGRCAGEYLLEAERHPSERLLAAVDILLRDTGMELEELDGFGVALGPGSFTGVRIGVATVKGLALATGKPAVGFSSLAMLALNLPWSLLPVCTLFDARKKEVYGGLYRVTSAPEPVIVDRVAPPERFLEAIEGEAIFVGDGAIRYREAIESILGHRAFFAPAHCHQPRASAGALLAGELLRTGAAVPLPLLNPTYIRPSEAELARMCQKAVAAALEHHHHHH” the value was “not soluble”. For “MKILVFGGTRFFGKKLVERLVSEGHDVTIGTRGKTEDNFGDTVKRVVLNRESRDALFQLAKEDWDVIYDNICFSPKEALYAVDAFKGKVKRYIYTSSLSVYSQKGRALVEADFNPEHYEIVIGDKEDFDYGEGKRLAEAVFFQKASFPVVAVRFPIVLGLDDYTKRLHFHINHIKNHQEIGISNGQAEIGFITSDEAAHFLEWVGVESDLTGPVNATSNGTYALNGFIKMLEEKIGELALVEEVTDDVDDSPFGIEKTYYLDNAKATEAGFVFNDLKVWLPALVTDILKENLEHHHHHH” the value was “not soluble”. For “MKILVTGTEGYLGSLLPSLLIAKGHEVSGLDTGFYKVGWLYNGTNITAKTLNKDIRNIIPEDLEGVDAIVHMAELSNDPAGQLAPHITYEINHLGSVHLANLAKRMGVRRFLYMSSCSVYGVASEGDVTEESPVNPQTAYAECKTLVERDIKPLADDDFSPTFMRNATAFGASPRMRFDIVLNNLSGLAWTTKEIKMTSDGTPWRPLVHALDICQAIICALEAPRDIVHNQVFNVGDTANNYRVKEIAEIIADTFPSCKLTFGNNGSDNRSYRVSFEKINTVLPGFKCEWNAQTGAKQLFDLFSQIDMTEDTFLFRGFTRLKQLEYLIRTQQIDQNFFWAKCDNVVV” the value was “not soluble”.

Consider “MKIQLDINGTEIQKGVWVGSGAIIEPGAILNPPCVIGDNCRIESGAVIDSLSVIGNNNVIERDSSVKRSVIWDGNYIEYGSKIRGAILCSKTNLKRYVHIFENAIVGDNCLINERVVIKPNIKIWPQKTVEPFAIVDRNIIWGSKLEHHHHHH”, for which the “soluble on expression in E. coli” value is “not soluble”. For “MKISPSLMCMDLLKFKEQIEFIDSHADYFHIDIMDGHFVPNLTLSPFFVSQVKKLATKPLDCHLMVTRPQDYIAQLARAGADFITLHPETINGQAFRLIDEIRRHDMKVGLILNPETPVEAMKYYIHKADKITVMTVDPGFAGQPFIPEMLDKLAELKAWREREGLEYEIEVDGSCNQATYEKLMAAGADVFIVGTSGLFNHAENIDEAWRIMTAQILAAKSEVQPHAKTA” the value was “soluble”. Next, “MKITVPATSANIGPGFDSVGVAVSKYLTIEVLEPADVWFIEHDLGDIPSDENNLLISTALQVKSDLQPHKLVMASDIPLAR”: “not soluble”. “MKIVAFNGSPRKGGNTELLIKEVFKPIQEAGIETELVQLGGKLLRGCASCYTCFKTKDGKCAIKTDPMNEFIQKAQEADGIILASPTYYGSVSAEMKAFMDRLGLTTIGQGRTLTRKVGAAVISVRRGGAVTVYDELNRFMLGSGMIVPGSTYWNFGIGEMPGEVFDDAEGLRNMKDLGVQLAWLLKAIHNLEHHHHHH”: the “soluble on expression in E. coli” value is on record as “soluble”.

As to “MKIVDANVLLYAVNTTSEHHKPSLRWLDGALSGADRVGFAWVPLLAFVRLATKVGLFPRPLPREAAITQVADWLAAPSAVLVNPTVRHADILARMLTYVGTGANLVNDAHLAALAVEHRASIVSYDSDFGRFEGVRWDQPPALL”, the “soluble on expression in E. coli” value is listed as “soluble”.

For the sequence “MKIVIIGSGLAGLSAGYRLCKSDEVIIFEKDPDIGGMSASYSIENEGKKYFIEKYYHHIFRSDSELLALIKELGLEKQMLWLKGKNAYFVDGKNYPMNTPVEILHFSPLSILDLAKLGMLVLRIKLIKDTAPYDRIKAKEWILDTAGKSVYENFFAPLMKSKFGDNAENVSAAWVIGRVKIRSDRGAEGEKLGYMRGGFNSLIEALAGEITANGGEIRTDREVTEIVIKANAVQGVKVNGDFIPCDAVISTAEPAVLDAITGGKLGDLHETLKSIRYQGTACALIGLDRSLMEDGNYWLNIKA”, the “soluble on expression in E. coli” value is reported as “not soluble”.

As for “MKIVVIGATGIIGKAIVAELNPRHEIISASYKNSDIQVDITSKQSIDAMYKKLNTIDAIVLATGKVHFAALKDMGEDDYKIGLTNKLMGQVNVVLAGLEYINDNGSFTLTSGILNRDPILYGSSAAMVNGALDGFIKSAALEMPRGIRINGVSPTVITEAMENYGPYFRGYEPVSAARAALAYSKSIEGAQTGQVYCVGLEHHHHHH”, the “soluble on expression in E. coli” value is listed as “not soluble”.

As for “MKIYYEGYGCTLNQGETGLYVNKLLSEGSVLVSRPDEADISIIGTCAVIQKTEDHMLKRIEELSRLGRVKVIGCLSAIKGSEISGGNIEAIDRNEFQQFQEYLEDTSIIDAEIMSGIPINQGCTGKCNFCISHIARGKLVSRRPEKIVNQIRMMVAAGKREIRISSLDTAAYGKDTGYRLPSLIKDITAVDGDFMLRVGMMEPRNTIEILDDLLEAYDDPKVFKFLHIPVQSGDDRVLTAMNREYTVDEFMQIIESFRKRFPDMTISTDVIIGYHAENDRSFDLTCDLIRKVQPEIINVTRFSPRELTPDFEHRPRPTNVLKDQDRTMAEIHRKIVSERFSALVGKVERILITEDGKPGTMVGRDASYRPVVIRAPAEKYTWHSARIIGYENTSLIGELVDLEHHHHHH”, the “soluble on expression in E. coli” value is given as “soluble”.

With “MKKAADRPTSAVNGRHESPATSTNNTQNSGTPSLNGQDPLRSTSSSPLFGTEPLPEDDHASCPYCQQDFRKPRVLDCLHSMCEDCIIAQLDGHLQAKSAAIEEKKRATAAMLDCELETPKVKERPTPPGVIRCPICSQESHVGNDVRYVHAMLLDFVRLAEMKEVEVEKMVAHHRKPCTACKSEQEAIAFCDQCSSDLCENCTTAHTVMNLFQGHTVTTFADLRQPGAHPELRQVMCSTHNQHMRYLCAACETAACKQCLEVDHLNHKIIDINELVINAIREDVTSTVDRVEKKYNNSVADMNSLPDKSQQLNEQYEIAKYRVDKHYEELRNSIEEAYQKSVNDLEEARIRQESNIDEMYRKSQVNEARVHDAINFTRRLLTKGNGLELVVSRKKVIQQFGNLSHAIPSHGHQVELEFYTPSKKQIDHFVHQLTGTVIGRVIQPTVKDVGNATAASTDRSERGGSQPGGGRSSSAANPSQQDEWGRPVYSQNPQLGAIGGERKKNTQNGTNGTRGDSNAFGGWPPSSHPPESTTPPPVTGPQTMITGAPTQTAAPIVSQQQLSNLPNAAAMAAAAAGMRPDLVALAANHMDLAALTNGSTNGSQTPLPESIFPAMWNARQGLPAVATPTTTGLSTNASAAYMQQKLAAAQLQALASHRLNPQIMSMNNLRTNQTIQEFLAMNAMGNLSLNPQLTSAAAAALAATAAANSAVTTTASDVGQSQNSANAQRVSDLKVHSVFGTSQQGSTIRELHCPSGFCLSDTDDILIADTNNHRVVVCGPPHPWKIGRPGTDDGQLCFPRKVIALRGEAVRYVVLDKGGDGKTRAQIFEARGEFVKRLNMMALVPRGGIEVSAAAATPNGQLLLVDTAGFVYSIDVDAPRVTFWFDASTQLGEASDVAMFDNLIYITDFKHHCVQVYTSEGKFIRKMGEPSQTPYPIGIDVSKAGEVLVADTHGNHLHVVVFSPEGQHIHSFTHNEFRLSRCVGLRIAKSGHIVTLCKHNHTLFVFKPLILPNGLPVPTPVPHATSLISKFQ”, the “soluble on expression in E. coli” value is “not soluble”.

Source of the values: the DeepSol protein solubility set.
